Our source for the Binding index values is US20160321394A1 (ACADEMIA SINICA, published 2016).

Where no end group is shown, it is not given here.

The target in assay [1] is full-length recombinant human GRP78 (glucose-regulated protein 78), N-His tagged (human) (UniProt P11021). In words: Biacore X SPR, 50 µM peptide over immobilised N-His GRP78; RU/MW normalised to L-peptide. On the technique in general: Surface plasmon resonance follows binding to a sensor surface in real time, without labels.
Assay [2] addresses T1, full-length recombinant human GRP78 (glucose-regulated protein 78), N-His tagged (human, UniProt P11021 19-654, limits assumed).
T1 construct: Immobilised on a Biacore NTA chip by Ni chelation plus amine coupling; also called His-tagged GRP78; human glucose-regulated protein 78; not shown: N-terminal His tag
The assay is described as above. As for the experimental part:
The chip NTA and HBS-P buffer were obtained from GE Healthcare. Sensor chip NTA was prepared by combining Ni-ion chelation and covalent immobilization of N-His tagged GRP78 via amine-coupling with nitrilotriacetic acid on chip NTA (FIG. 6). To immobilize GRP78 protein on sensor chip for peptide-binding assay using Biacore, the methods based on Ni-ion chelation and amine coupling reaction were combined. Sensor chip NTA was prepared by chelation followed by covalent immobilization of N-His-tagged GRP78 via amine-coupling at the nitrilotriacetic acid group on chip NTA. The sensor chip NTA, HBS-P buffer and amine coupling kits were all obtained from GE Healthcare. First, the activation of chip surface using EDC and NHS reagents for amine coupling were according to the standard procedure from manufacturer's instruction. Additionally, one-minute pulse of NiCl₂ solution (500 μM) was used to attract His-tagged GRP78 to the surface of sensor chip and formed covalent bond subsequently in the condition of HBS-P buffer (pH 7.4). The resulting differences of RU were about 5,000˜6,000 RU. After de-activation by ethanolamine and washed with EDTA (3 mM), the prepared sensor chip was then applied to Biacore X for binding assay. The HBS-P buffer containing 1 mM Gly was used as running buffer for binding assay. Solution of 20 mM sodium hydroxide dissolved in running buffer was used to regenerate the chip surface by one-minute pulse.
The sensor chip thus prepared was applied to Biacore X for determining the binding between the peptides and GRP78. The HBS-P buffer containing 1 mM Gly was used as a running buffer. A solution of 20 mM sodium hydroxide dissolved in the running buffer was used to regenerate chip surface by 1-minute pulses.

T1 sequence (P11021 19-654 limits assumed): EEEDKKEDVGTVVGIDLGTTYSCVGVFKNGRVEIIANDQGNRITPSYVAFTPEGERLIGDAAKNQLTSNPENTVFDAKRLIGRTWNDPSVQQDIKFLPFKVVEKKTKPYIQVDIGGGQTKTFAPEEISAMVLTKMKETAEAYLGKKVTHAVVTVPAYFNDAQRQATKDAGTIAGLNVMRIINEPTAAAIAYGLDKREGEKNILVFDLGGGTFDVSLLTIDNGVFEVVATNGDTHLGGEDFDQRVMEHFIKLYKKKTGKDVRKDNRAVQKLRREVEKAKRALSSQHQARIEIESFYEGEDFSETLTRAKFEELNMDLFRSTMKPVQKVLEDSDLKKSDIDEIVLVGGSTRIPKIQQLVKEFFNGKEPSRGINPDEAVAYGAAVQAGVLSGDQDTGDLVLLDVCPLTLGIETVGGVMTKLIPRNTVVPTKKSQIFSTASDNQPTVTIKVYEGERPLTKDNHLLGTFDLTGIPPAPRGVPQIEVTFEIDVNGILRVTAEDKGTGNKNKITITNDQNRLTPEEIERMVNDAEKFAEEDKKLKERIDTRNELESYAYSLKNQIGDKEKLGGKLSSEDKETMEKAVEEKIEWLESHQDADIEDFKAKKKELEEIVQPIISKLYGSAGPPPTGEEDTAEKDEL
Chain of full-length recombinant human GRP78 (glucose-regulated protein 78), N-His tagged (human) (P11021 19-654 limits assumed): as above

B1: PB-2 (peptide)
peptide: RLLDTNRPYLWY
In the case of B1, the Binding index in assay [1] was found to be 3.

B2: PB-3 (peptide)
peptide: RLLDTNRPLLPY-NH2
In the case of B2, the Binding index in assay [2] is 1.15.

B3: L-peptide (peptide)
peptide: RLLDTNRPLLPY
notes: synthetic 12-mer, lead peptide; also called positive control
Regarding B3, the Binding index in assay [2] stood at 1.

B4: PA-4 (peptide)
peptide: RLLDTNRPNLPY
In the case of B4, the Binding index in assay [2] came to 0.31.

B5: PA-6 (peptide)
peptide: RLLDTNRPHLPY
For the molecule B5, the Binding index in assay [2] is 0.47.

B6: PB-1 (peptide)
peptide: RLLDTNRPFLWY
Take B6: in assay [2], the Binding index is 1.6.

B7: P-11 (peptide)
peptide: RLLDTNRPLLGY
B7: the Binding index in assay [2] worked out at 0.77.

B8: PA-1 (peptide)
peptide: RLLDTNRPWLPY
Consider B8, for which the Binding index in assay [2] was found to be 0.35.

B9: P-14 (peptide)
peptide: RLLDTNRPLLLY
For B9, the Binding index in assay [2] came out at 0.21.

B10: PA-5 (peptide)
peptide: RLLDTNRPQLPY
As for B10, the Binding index in assay [2] turned out to be 0.3.
